Assay results published in US20100092982A1 (University of California, published 2010).

T1: CARM1 fused to Gal4AD (pGAD10.CARM1) (mouse, UniProt Q4AE70 3-651 (rat entry))
T1 construct: Yeast two-hybrid prey; also called CARM1-AD hybrid protein; CARM1(3-608)
T1 sequence: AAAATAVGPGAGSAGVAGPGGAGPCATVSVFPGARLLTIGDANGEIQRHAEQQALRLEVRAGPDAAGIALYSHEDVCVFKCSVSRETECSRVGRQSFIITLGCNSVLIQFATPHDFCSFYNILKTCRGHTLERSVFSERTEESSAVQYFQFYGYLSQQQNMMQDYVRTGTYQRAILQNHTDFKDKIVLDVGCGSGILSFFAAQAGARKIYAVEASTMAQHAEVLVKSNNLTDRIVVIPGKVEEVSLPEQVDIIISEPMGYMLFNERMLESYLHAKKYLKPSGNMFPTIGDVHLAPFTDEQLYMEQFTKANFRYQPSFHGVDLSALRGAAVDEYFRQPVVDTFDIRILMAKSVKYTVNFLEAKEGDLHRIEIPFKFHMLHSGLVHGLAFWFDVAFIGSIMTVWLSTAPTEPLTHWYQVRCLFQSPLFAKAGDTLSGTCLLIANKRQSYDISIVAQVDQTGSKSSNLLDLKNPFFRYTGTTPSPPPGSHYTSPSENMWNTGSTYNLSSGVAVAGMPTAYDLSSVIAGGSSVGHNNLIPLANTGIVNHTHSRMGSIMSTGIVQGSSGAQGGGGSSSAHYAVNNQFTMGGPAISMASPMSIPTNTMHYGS

B1: Gal4 DBD-GRIP1c (GRIP1 1122-1462) (other, UniProt P04386 1-147, looked up)
chain: MKLLSSIEQACDICRLKKLKCSKEKPKCAKCLKNNWECRYSPKTKRSPLTRAHLTEVESRLERLEQLFLLIFPREDLDMILKMDSLQDIKALLTGLFVQDNVNKDAVTDRLASVETDMPLTLRQHRISATSSSEESSNKGQRQLTVSSSIMLEQKPPVFPQQYASQAQMAQGGYNPMQDPNFHTMGQRPNYTTLRMQPRPGLRPTGIVQNQPNQLRLQLQHRLQAQQNRQPLMNQISSVSNVNLTLRPGVPTQAPINAQMLAQRQREILNQHLRQRQMQQQVQQRTLMMRGQGLNVTPSMVAPAGLPAAMSNPRIPQANAQQFPFPPNYGISQQPDPGFTGATTPQSPLMSPRMAHTQSPMMQQSQANPAYQPTSDMNGWAQGSMGGNSMFSQQSPPHFGQQANTSMYSNNMNISVSMATNTGGLSSMNQMTGQMSMTSVTSVPTSGLPSMGPEQVNDPALRGGNLFPNQLPGMDMIKQEGDASRKYC
notes: One entry covers both the yeast bait (pGBT9) and the mammalian vector (pM) fusion; also called pGBT9.GRIP1c; pM.GRIP1c
B2: Gal4 DBD-GRIP1 fragment 1211-1350 (other, UniProt P04386 1-147, looked up)
chain: MKLLSSIEQACDICRLKKLKCSKEKPKCAKCLKNNWECRYSPKTKRSPLTRAHLTEVESRLERLEQLFLLIFPREDLDMILKMDSLQDIKALLTGLFVQDNVNKDAVTDRLASVETDMPLTLRQHRISATSSSEESSNKGQRQLTVSSSVSNVNLTLRPGVPTQAPINAQMLAQRQREILNQHLRQRQMQQQVQQRTLMMRGQGLNVTPSMVAPAGLPAAMSNPRIPQANAQQFPFPPNYGISQQPDPGFTGATTPQSPLMSPRMAHTQSPMMQQSQANPAYQPTSD
B3: Gal4 DBD-GRIP1c C-terminal fragment starting at amino acid 1306 (GRIP1c bisected between 1305 and 1306) (other, UniProt P04386 1-147, looked up)
chain: MKLLSSIEQACDICRLKKLKCSKEKPKCAKCLKNNWECRYSPKTKRSPLTRAHLTEVESRLERLEQLFLLIFPREDLDMILKMDSLQDIKALLTGLFVQDNVNKDAVTDRLASVETDMPLTLRQHRISATSSSEESSNKGQRQLTVSSQQPDPGFTGATTPQSPLMSPRMAHTQSPMMQQSQANPAYQPTSDMNGWAQGSMGGNSMFSQQSPPHFGQQANTSMYSNNMNISVSMATNTGGLSSMNQMTGQMSMTSVTSVPTSGLPSMGPEQVNDPALRGGNLFPNQLPGMDMIKQEGDASRKYC
B4: Gal4 DBD-GRIP1c N-terminal fragment ending at amino acid 1305 (GRIP1c bisected between 1305 and 1306) (other, UniProt P04386 1-147, looked up)
chain: MKLLSSIEQACDICRLKKLKCSKEKPKCAKCLKNNWECRYSPKTKRSPLTRAHLTEVESRLERLEQLFLLIFPREDLDMILKMDSLQDIKALLTGLFVQDNVNKDAVTDRLASVETDMPLTLRQHRISATSSSEESSNKGQRQLTVSSSIMLEQKPPVFPQQYASQAQMAQGGYNPMQDPNFHTMGQRPNYTTLRMQPRPGLRPTGIVQNQPNQLRLQLQHRLQAQQNRQPLMNQISSVSNVNLTLRPGVPTQAPINAQMLAQRQREILNQHLRQRQMQQQVQQRTLMMRGQGLNVTPSMVAPAGLPAAMSNPRIPQANAQQFPFPPNYGI
B5: GST-CARM1 (enzyme)
chain: T1 sequence
notes: also called GST fusion protein of CARM1; glutathione S-transferase-CARM1; not shown: glutathione S-transferase (GST) as encoded by vector pGEX-4T1 (Pharmacia)
B6: GRIP1 amino acids 730-1121, translated in vitro (other, UniProt Q61026 730-1121, looked up)
chain: VKQEPASPKKKENALLRYLLDKDDTKDIGLPEITPKLERLDSKTDPASNTKLIAMKTVKEEVSFEPSDQPGSELDNLEEILDDLQNSQLPQLFPDTRPGAPTGSVDKQAIINDLMQLTADSSPVPPAGAQKAALRMSQSTFNNPRPGQLGRLLPNQNLPLDITLQSPTGAGPFPPIRNSSPYSVIPQPGMMGNQGMLGSQGNLGNNSTGMIGSSTSRPSMPSGEWAPQSPAVRVTCAATTGAMNRPVQGGMIRNPTASIPMRANSQPGQRQMLQSQVMNIGPSELEMNMGGPQYNQQQAPPNQTAPWPESILPIDQASFASQNRQPFGSSPDDLLCPHPAAESPSDEGALLDQLYLALRNFDGLEEIDRALGIPELVSQSQAVDAEQFSSQE
notes: range 730-1121; also called GRIP1 (730-1121); not shown: translation start and HA tag encoded by pSG5.HA
B7: Gal4 DBD-GRIP1 amino acids 1121-1210 (N-terminal fragment of GRIP1c bisected between 1210 and 1211) (other, UniProt P04386 1-147, looked up)
chain: MKLLSSIEQACDICRLKKLKCSKEKPKCAKCLKNNWECRYSPKTKRSPLTRAHLTEVESRLERLEQLFLLIFPREDLDMILKMDSLQDIKALLTGLFVQDNVNKDAVTDRLASVETDMPLTLRQHRISATSSSEESSNKGQRQLTVSESSIMLEQKPPVFPQQYASQAQMAQGGYNPMQDPNFHTMGQRPNYTTLRMQPRPGLRPTGIVQNQPNQLRLQLQHRLQAQQNRQPLMNQI
notes: also called the N-terminal fragment
B8: Gal4 DBD-GRIP1 1211-1462 (C-terminal fragment of GRIP1c bisected between 1210 and 1211) (other, UniProt P04386 1-147, looked up)
chain: MKLLSSIEQACDICRLKKLKCSKEKPKCAKCLKNNWECRYSPKTKRSPLTRAHLTEVESRLERLEQLFLLIFPREDLDMILKMDSLQDIKALLTGLFVQDNVNKDAVTDRLASVETDMPLTLRQHRISATSSSEESSNKGQRQLTVSSSVSNVNLTLRPGVPTQAPINAQMLAQRQREILNQHLRQRQMQQQVQQRTLMMRGQGLNVTPSMVAPAGLPAAMSNPRIPQANAQQFPFPPNYGISQQPDPGFTGATTPQSPLMSPRMAHTQSPMMQQSQANPAYQPTSDMNGWAQGSMGGNSMFSQQSPPHFGQQANTSMYSNNMNISVSMATNTGGLSSMNQMTGQMSMTSVTSVPTSGLPSMGPEQVNDPALRGGNLFPNQLPGMDMIKQEGDASRKYC
notes: also called the C-terminal fragment

Experiments:
[1] = biological target: T1, CARM1 fused to Gal4AD (pGAD10.CARM1); assay: yeast two-hybrid, β-galactosidase activity (figure legend)
Description: (§1) Sub-fragments of the GRIP1 C-terminal domain (GRIP lc), fused with the Gal4 DBD, were tested in the yeast two-hybrid system as described previously (Ding, X. F. et al. (1998) Mol. Endocrinol. 12:302) for binding to CARM1 or to α-actinin, fused to Gal4AD. β-galactosidase (β-gal) activity indicates interaction between the two hybrid proteins.

[2] = biological target: T1, CARM1 fused to Gal4AD (pGAD10.CARM1); assay: yeast two-hybrid, β-galactosidase activity
Description: as §1

[3] = biological target: T2, GRIP1 amino acids 5-765, translated in vitro (UniProt Q61026 5-765); assay: GST pull-down on glutathione agarose beads, labeled in vitro translated fragment, SDS-PAGE
T2 construct: range 5-765; also called GRIP1 (5-765); not shown: translation start and HA tag encoded by pSG5.HA
T2 sequence (Q61026 5-765): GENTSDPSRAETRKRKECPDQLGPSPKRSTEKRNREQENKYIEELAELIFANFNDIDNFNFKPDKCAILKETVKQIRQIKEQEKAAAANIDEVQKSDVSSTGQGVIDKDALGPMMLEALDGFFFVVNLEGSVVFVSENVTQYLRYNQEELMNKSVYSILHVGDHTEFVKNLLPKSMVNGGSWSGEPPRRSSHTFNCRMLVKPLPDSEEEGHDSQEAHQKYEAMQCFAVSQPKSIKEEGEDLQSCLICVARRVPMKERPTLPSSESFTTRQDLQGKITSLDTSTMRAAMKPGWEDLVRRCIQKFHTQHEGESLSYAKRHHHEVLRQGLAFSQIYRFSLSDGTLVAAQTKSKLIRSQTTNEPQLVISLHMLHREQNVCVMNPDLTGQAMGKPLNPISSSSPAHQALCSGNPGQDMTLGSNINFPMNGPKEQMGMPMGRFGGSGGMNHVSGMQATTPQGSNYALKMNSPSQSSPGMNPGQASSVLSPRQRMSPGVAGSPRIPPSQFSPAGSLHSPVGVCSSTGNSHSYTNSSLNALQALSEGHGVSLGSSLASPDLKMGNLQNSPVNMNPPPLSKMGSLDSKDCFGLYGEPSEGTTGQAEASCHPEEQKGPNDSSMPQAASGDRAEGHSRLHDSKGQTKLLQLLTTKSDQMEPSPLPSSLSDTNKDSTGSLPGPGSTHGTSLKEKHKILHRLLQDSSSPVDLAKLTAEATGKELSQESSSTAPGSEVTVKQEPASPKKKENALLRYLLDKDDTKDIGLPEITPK
Description: (§2) The binding of GRIP1c to CARM1 observed in the yeast two-hybrid system was confirmed in vitro, by incubating glutathione S-transferase (GST) fusion proteins attached to glutathione agarose beads with labeled proteins or protein fragments translated in vitro. […] Conversely, GST-GRIP1c bound CARM1 and the VLD to AAA mutant of CARM1 (FIG. 3B). GST-CARM1 not only bound GRIP1 but also the other two members of the p160 coactivator family, SRC-1a and ACTR (FIG. 3A). […] GST fusion proteins of CARM1 or the indicated GRIP1 fragments produced in E. coli strain BL21 (Stratagene), were bound to glutathione-agarose beads and incubated with labeled full length CARM1 or p160 coactivators or GRIP1 fragments translated in vitro from vector pSG5.HA-CARM1, pSG5.HA-GRIP1, pSG5.HA-SRC-1a (Chen, D. et al. 1999), or pCMX.ACTR (Chen et al. 1997); bound labeled proteins were eluted and analyzed by SDS polyacrylamide gel electrophoresis as described previously (Hong et al. 1996). A mutant form of CARM1 with the triple amino acid substitution (VLD changed to AAA) shown in FIG. 1 still retains the ability to bind to the C-terminal fragment of GRIP1.

GST-CARM1 = biological target: B5; assay: as above
Description: as §2

Binder	binding result [2]	further results
B1	–	binding result [1]: binds
B2	binds	–
B3	no binding	–
B4	no binding	–
B5	–	binding result [3]: no binding
B6	–	binding result (GST-CARM1): no binding
B7	no binding	–
B8	binds	–
